{
  "source": "patent US20240124602A1",
  "target": "canine CD20 (canine) (UniProt Q3C2E2)",
  "sequence (Q3C2E2 whole entry)": "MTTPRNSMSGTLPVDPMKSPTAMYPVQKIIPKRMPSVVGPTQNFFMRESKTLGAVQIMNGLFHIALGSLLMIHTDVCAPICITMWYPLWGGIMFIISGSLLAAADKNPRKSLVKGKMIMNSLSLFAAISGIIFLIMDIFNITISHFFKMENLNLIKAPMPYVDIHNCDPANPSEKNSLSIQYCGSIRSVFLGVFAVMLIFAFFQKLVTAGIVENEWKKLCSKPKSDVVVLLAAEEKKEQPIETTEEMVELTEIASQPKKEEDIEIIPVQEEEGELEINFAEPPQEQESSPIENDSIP",
  "assay": "flow cytometry on canine PBMCs without 18F6 (control), FSC-H/SSC-H subset, Event Count 9100; FL1-H = 2o FITC alone, FL2-H = CD21-PE",
  "data": [
    {"substance": "2o FITC (antibody)", "values": [
      {"measurement": "quadrant number, lower left (FL1-H low, FL2-H low); unit not given", "value": 72.5},
      {"measurement": "quadrant number, lower right (FL1-H low, FL2-H high); unit not given", "value": 22.9},
      {"measurement": "quadrant number, upper left (FL1-H high, FL2-H low); unit not given", "value": 2.18},
      {"measurement": "quadrant number, upper right (FL1-H high, FL2-H high); unit not given", "value": 2.37}
    ]}
  ]
}
